In the supplement of paper PMC12042874:
± gives the uncertainty stated by the source.

Experiment: amyloid nucleation score (Sup35N fusion, yeast selection) (log enrichment); library NNK2; higher = more nucleation; inactive = no reads after selection
Procedure, shortened: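 For the nucleation score, DiMSum gave the log enrichment of output over input reads, centred on the mode score of non-aggregating sequences. Psi-negative yeast expressing Sup35N fused to peptides of 20 random codons were induced with 100 μM copper sulfate for 24 hours and grown 7 days at 30°C on medium lacking adenine and uracil. Input and output plasmid inserts were Illumina-sequenced, and sequences with under 100 input reads were excluded.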

| Substance | amyloid nucleation score |
| --- | --- |
| VLGKFVEPGMAGLSVTPFRM | 0.829 ± 0.57 |
| ANFCVDCIDIAH | 0.787 ± 0.45 |
| LAKGPSQDYGAVPHKVMFHS | 0.961 ± 0.58 |
| SLFWNISPLKWSLLIGRCSV | -1.01 ± 0.78 |
| FPAWTDGVVLVRVVGASTEE | -0.132 ± 0.34 |
| IVVVLWTFFDG | -1.09 ± 0.55 |
| HVYAVRSLLYGGWGRH | 4.46 ± 0.051 |
| ITTFLCSGFCIINAVRNFLS | 2.77 ± 0.12 |
| FHVEHGAWWCIGDRFVVPGF | 0.541 ± 0.2 |
| EEQKSYSENMPV | -0.21 ± 0.56 |
| TVHRCD | 0.627 ± 0.57 |
| NRFFAALLFKADLFWSQF | -0.021 ± 0.76 |
| FCSVTMHKKMN | -0.195 ± 0.38 |
| VHHLDNYLQAN | -0.659 ± 0.34 |
| RFPCRLLRASLFP | -0.636 ± 0.45 |
| RNKIMCNPYCQGRICRILSG | -0.777 ± 0.53 |
| SDSNSCGEFARISYMGKWCE | 0.705 ± 0.8 |
| TKFVWDQNLVSSLINCGQSL | -0.841 ± 1.1 |
| LTPIMAEKVLPYICQLLRGS | -0.228 ± 0.55 |
| TWLSCPTLNHLVTNMPWY | -0.759 ± 0.39 |
| TSHSFVLVY | -0.705 ± 0.33 |
| FYSFRLFMV | 1.88 ± 0.2 |
| GFHLQMEEVASYFLEIRPFC | 0.02 ± 0.79 |
| DPVRWRVKFFFYDSEVCGPL | 2.73 ± 0.17 |
| YQYRDLLVIVRSTMKSNVSV | 1.85 ± 0.1 |

| Substance | amyloid nucleation score |
| --- | --- |
| TCYTKPLNEYYE | 0.011 ± 0.56 |
| SMSPGVFLISGWPMVENVVF | inactive |
| HRGNTCTGSRCRLADRRHPS | 1.79 ± 0.18 |
| YGVEAECLEKNAALLCYNID | inactive |
| GHGKPTGYYGDYENQTVLY | -0.25 ± 0.61 |
| CSITRLGSVHYLSRYIFV | 3.74 ± 0.083 |
| SVHRERWMFYIFVCTLVVRG | 0.056 ± 0.43 |
| RCCSVAYTIGLLTRRSLATG | 0.451 ± 0.24 |
| SVWVCPPLFGQMCAGVTNNR | -0.014 ± 0.41 |
| DWRSLRLGVK | -0.065 ± 0.32 |
| TYSSNASGVTVFR | -0.772 ± 0.63 |
| ATYFWMQSVP | 0.903 ± 0.74 |
| QTNCETCVFNNTFELMLHQS | 4.37 ± 0.087 |
| YRHYIGRTSFTLY | -0.232 ± 1.1 |
| GSCPRSDAKSAADCIQV | -0.177 ± 0.79 |
| AGCVVNHTPRLLGRSTKRLK | 3.1 ± 0.062 |
| FVCMIILS | 4.89 ± 0.064 |
| HFKFYRNNYMTVIVHKACDV | 8.665 ± 0.083 |
| NVLWIDLSRVKVVDGNRSPE | 6.342 ± 0.061 |
| RPCFCFSMFYGRKW | 0.553 ± 0.8 |
| ACNSTFNRIEVYARVMKDTS | 3.96 ± 0.094 |
| LKLTVPKDRRKKMKGRVALI | -0.064 ± 0.76 |
| MMSLPTLQSW | inactive |
| EVFGGFTRRRCVVLPRHRAW | 1.9 ± 0.27 |
| SVSSKGNLGA | 0.11 ± 0.22 |

| Substance | amyloid nucleation score |
| --- | --- |
| CFLESGSLMLYEV | -0.081 ± 1.1 |
| YYSAHAKSAGLM | 1.2 ± 0.48 |
| FWPYRPCKLYVIYLR | inactive |
| VWIGAAGGDFDSCRG | 1.29 ± 0.43 |
| RPFKYCVRRLANRA | 0.135 ± 0.65 |
| NDSFSFDSRCVVDRFGVAKK | -0.612 ± 0.76 |
| YIKFIFCP | inactive |
| SYCSLVFLTDISSYIGFQCV | 5.16 ± 0.078 |
| RYPVESCVHSFLESRVRDQG | 0.881 ± 0.45 |
| SMGVGTAVTCRTLVVLDGSC | 0.741 ± 0.37 |
| LSKCHCNILCVLMTCMWHLY | 0.333 ± 0.46 |
| VIFCVLLVNNLDWRFWPSSK | 4.928 ± 0.037 |
| VKVVVNSSDNCVSIDWSYGR | 2.14 ± 0.17 |
| SMIYIGIFS | 5.281 ± 0.031 |
| IFSKVRLFFRRGMNFVMGEV | -1.64 ± 0.77 |
| YLSTFCGVFIYLVNIPLGRA | 4.48 ± 0.058 |
| SCHSFRFKPNGFVL | -0.575 ± 0.49 |
| LRRYYQCGTRLLIRFRMLEV | 1 ± 0.34 |
| VNKILQEYMACRRNLQTQMW | -0.215 ± 0.3 |
| PSVRTYTV | 4.67 ± 0.054 |
| STTGYSVWFVA | -1.19 ± 0.62 |
| WVIFSLVKWCMFSNDVVWVA | -0.944 ± 0.34 |
| HEKGIKVVQGGQVYGITVEV | 0.093 ± 0.39 |
| TDLWFRLATRCNDNDAFFL | -0.981 ± 1.1 |
| VNLSCPVMNRTSMMCVVYLH | 7.799 ± 0.052 |

| Substance | amyloid nucleation score |
| --- | --- |
| LRHWCE | 0.218 ± 0.18 |
| KLMLSALFLKVPAIIGRYRW | 0.736 ± 0.8 |
| SILLPPFSRAFDSPRIYITP | -0.82 ± 0.55 |
| FVLRCDPVMA | -0.053 ± 1 |
| ILRDVVDLQMHNTWRNRGDQ | 3.66 ± 0.063 |
| RKVRCRYSMT | 0.142 ± 0.6 |
| HVYVGL | -0.578 ± 1.1 |
| FCNDRTTVGD | -0.538 ± 0.39 |
| YVVTYLRRRTLLAGSCISNY | 0.164 ± 0.8 |
| FLFMAIYSILLASIYVAFLS | 2.02 ± 0.2 |
| LFNLACLRGRKTVWITDKLT | 0.012 ± 0.5 |
| FVSFSVGWTLCADMNLRMCF | 1.24 ± 0.22 |
| HPSFLRIWDYIRSKFNSVHR | inactive |
| MHSFLFLVIAM | inactive |
| RHPMSKKTSYKWYVVLTQCR | 0.554 ± 0.31 |
| NFLLSL | 0.322 ± 0.47 |
| EPSCTATKFVSGTMF | 2.17 ± 0.11 |
| STPLILVRCNSYL | -0.456 ± 0.28 |
| GGEIESIGFRLGCLSRRSES | -0.383 ± 0.49 |
| ALNAG | 1.11 ± 0.2 |
| NFRGGFWPVNMNTRLIWSGV | -1.52 ± 0.62 |
| NQTNSGQRVY | -0.208 ± 1.1 |
| IDNLFWPRLSGPDFVI | -1.7 ± 1.1 |
| GSASSCGCMMWQCKAICPNS | -0.4 ± 0.63 |
| ELKFSINWHW | 4.4 ± 0.083 |

| Substance | amyloid nucleation score |
| --- | --- |
| KLLKYLSNSFTHRVLCNHDD | inactive |
| KYFTVTDVSLY | 5.911 ± 0.028 |
| CQMYWYFWPGVTRFAR | 8.633 ± 0.03 |
| ISTYSLCLLSWWH | 9.469 ± 0.054 |
| MLTTMCDELQLLVGPLGDRV | 0.253 ± 0.3 |
| GMNLNLPTQTHTSVRHNRG | 2.75 ± 0.14 |
| VMCEEGLALRRCTGWLMFTG | 1.11 ± 0.28 |
| KVGVVNYTTSLRFAGRDSSL | 4.52 ± 0.091 |
| FFSNL | 0.119 ± 0.57 |
| YSFSRTYVLIIDGVS | 1.27 ± 0.18 |
| SMCDNQKLATDFVSAPRKYG | -0.73 ± 0.79 |
| VGLISERLVSMSTVA | 0.4 ± 0.56 |
| TIATPHCVYDSCGCSVVSSV | 0.176 ± 0.56 |
| GWNGNLSGTAHLGSSIVSSG | -0.649 ± 0.79 |
| EQRILRLSRSIESFSMNRNQ | -0.593 ± 0.64 |
| FMLTLQKTLFFCNDRVC | 5.25 ± 0.064 |
| MQNANLIQTFEGYIYPMDIQ | 0.433 ± 0.74 |
| PRHSSSPALILWNYPNLTGI | -0.708 ± 0.37 |
| IQSDLNNLLMHVRVFMCSAV | 4.05 ± 0.065 |
| DGTYISKVNSRCVEDGARPR | 1.38 ± 0.34 |
| FAYISRFKGG | 4.22 ± 0.059 |
| VLGNSLELVGNRLDSI | 4.11 ± 0.066 |
| VNWLFACVELR | 0.365 ± 0.36 |
| SMCWNL | 0.17 ± 0.39 |
| PITVYWCCDNS | 3.84 ± 0.087 |

| Substance | amyloid nucleation score |
| --- | --- |
| PRLGWHVLLVQIAVG | 2.94 ± 0.085 |
| SLGRGPYDRNMIVFMMRELT | -0.682 ± 0.64 |
| SNALQDGRVQLGSFEHRIVR | 0.649 ± 0.5 |
| LTYAYNISYFNWVYCGYWFC | 6.448 ± 0.042 |
| LVVIYMTRVGASTKLRVSVL | inactive |
| SPTRFFQLFQADGNSNRGDV | -0.519 ± 1 |
| GRWLSFKFSDDRQRVRYRVH | -0.158 ± 0.63 |
| TDISQEGPVNIL | inactive |
| GLMGLYRRALSTLRRILFMR | -0.072 ± 0.63 |
| LYNRRPFPYGYGTGLCPQRI | -0.047 ± 0.79 |
| RWNGSKLRY | 0.009 ± 0.76 |
| SNCRTSFIQMVVYDCFGSFF | 4.74 ± 0.09 |
| PYVTFITLCSAFKYVYKCWY | 5.448 ± 0.047 |
| NWCYTTSGHHRVTFGLQRLP | 4.8 ± 0.052 |
| IKNVWFQFSCGGPGSLRVGS | 0.318 ± 0.32 |
| PDSYGNFHHSSYNHDHNLVH | inactive |
| VIRTPILGYWSCIGTFNVFW | 8.167 ± 0.044 |
| NDLARSFRV | -1.13 ± 1.1 |
| NLRRKH | 0.294 ± 0.8 |
| DALVFSPCRALWTLLSVCEG | 0.896 ± 0.3 |
| YFRCVASCVT | inactive |
| GCDDDDAA | 1.31 ± 0.32 |
| ISGVSDGQMGFWRNEMGQGS | 0.28 ± 0.39 |
| IRCCTYFAALSILLAPIKAG | 0.322 ± 0.27 |
| NSVAIVQIVGASAWRGNLL | 5.128 ± 0.046 |

| Substance | amyloid nucleation score |
| --- | --- |
| RTPSCSL | -0.916 ± 1 |
| AVTIMCPAGLTMANSLVFKQ | 5.18 ± 0.07 |
| VDNCDLGIS | -0.861 ± 1.1 |
| YWVSCHVALGMALKSVLVPC | 0.009 ± 0.76 |
| SAFVVQFVK | -0.31 ± 0.42 |
| FRFLDNELQNRGRRMYQLGY | -0.465 ± 1 |
| PPLLSISYKRRRVMFHFHVF | inactive |
| IIVIVWQGWSNGVGLHSCGA | 3.15 ± 0.063 |
| RMSWVGSEHRLGVNSFNVLG | 0.201 ± 0.34 |
| PARLTNCGDPSY | -0.997 ± 0.3 |
| WHQLKSTPLHFYSINTASFN | 0.123 ± 0.6 |
| LVKVTLRVMISV | 0.099 ± 0.2 |
| NEVTRAWSEFPYFMVSRHMT | 0.813 ± 0.47 |
| HMCTFSIICKKVLMSFMGIL | 1.93 ± 0.14 |
| FYCIFNFDIFV | 6.286 ± 0.052 |
| ALDWPLICA | -0.07 ± 0.39 |
| RWFFEQDIIYLSRVRGDFRV | inactive |
| RFSYGVEANVMSPINTFLQW | 0.77 ± 0.23 |
| GARMSRSSGFSVQYNFSGQG | 4.11 ± 0.093 |
| SHHLRKSFCPC | -0.279 ± 0.5 |
| WDVKRIRKVSFDFVSRGWKG | -0.293 ± 0.32 |
| RVYSLNSRWYSLPG | 0.016 ± 0.76 |
| LTVTDG | 0.104 ± 0.37 |
